Experimental data reported in patent publication US20100297683A1 (QUEEN MARY AND WESTFIELD COLLEGE, published 2010).
Blank lines part the entries; values can stand above or below the molecule they belong to. Ends that are not written are not given here.

Key:
[1] = test system: T1, AAPVAAK cross-linked dextran hydrogel
T1 sequence: AAPVAAK

[2] = test system: T2, AAPFFK cross-linked dextran hydrogel
T2 sequence: AAPFFK

BSA = biological target: T3, BSA (UniProt P02769 25-607); experiment: QCM admittance (mass, delta XL) on peptide hydrogel film
T3 construct: Control protein added instead of HNE

[3] = biological target: T4, AAPVAAK cross-linked dextran hydrogel (not fully specified)
T4 chain: AAPVAAK

[4] = biological target: T5, AAPFFK cross-linked dextran hydrogel
T5 chain: AAPFFK

[5] = biological target: T6, Ala-Ala-Pro-Val-Ala-Ala-Lys-NH2 (AAPVAAK) peptide cross-linker in acrylamide hydrogel film (not fully specified)
T6 chain: AAPVAAK

T3 sequence (P02769 25-607 limits assumed): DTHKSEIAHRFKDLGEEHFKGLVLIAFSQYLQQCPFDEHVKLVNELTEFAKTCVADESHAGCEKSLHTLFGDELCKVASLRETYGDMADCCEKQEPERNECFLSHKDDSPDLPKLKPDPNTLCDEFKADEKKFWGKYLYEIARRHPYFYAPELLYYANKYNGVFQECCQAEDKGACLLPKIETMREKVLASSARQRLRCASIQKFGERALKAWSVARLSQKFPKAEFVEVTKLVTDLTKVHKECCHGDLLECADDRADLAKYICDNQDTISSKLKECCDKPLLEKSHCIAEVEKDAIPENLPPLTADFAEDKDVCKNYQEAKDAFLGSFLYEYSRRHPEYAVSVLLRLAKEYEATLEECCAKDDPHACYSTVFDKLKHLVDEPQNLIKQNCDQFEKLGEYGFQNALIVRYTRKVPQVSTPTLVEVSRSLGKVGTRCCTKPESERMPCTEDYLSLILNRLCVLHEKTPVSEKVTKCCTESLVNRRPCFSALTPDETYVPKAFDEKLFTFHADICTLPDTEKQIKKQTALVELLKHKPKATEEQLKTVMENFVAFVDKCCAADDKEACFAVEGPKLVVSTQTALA

Molecule: cathepsin G
degradation of hydrogel film monitored by QCM, 100 mU cathepsin G [1]: slow degradation was observed, indicating some minor cross-sensitivity
degradation of hydrogel film monitored by QCM resonant frequency, 100 mU/ml cathepsin G [2]: Cathepsin G caused the films to degrade resulting in an increase in resonant frequency

binding result (BSA): no binding
B1: Ala-Ala-Pro-Val-Ala-Ala-Lys-NH2 (AAPVAAK) peptide cross-linker in acrylamide hydrogel film (peptide)
peptide: AAPVAAK-NH2
modifications: not fully specified (N-terminus); printed as Ala-Ala-Pro-Val-Ala-Ala-Lys-NH2; also: both ends capped with acryloyl group, copolymerised with acrylamide into hydrogel film

B2: Human Neutrophil Elastase (protein)
chain: IVGGRRARPHAWPFMVSLQLRGGHFCGATLIAPNFVMSAAHCVANVNVRAVRVVLGAHNLSRREPTRQVFAVQRIFENGYDPVNLLNDIVILQLNGSATINANVQVAQLPAQGRRLGNGVQCLAMGWGLLGRNRGIASVLQELNVTVVTSLCRRSNVCTLVRGRQAGVCFGDSGSPLVCNGLIHGIASFVRGGCASGLYPDAFAPVAQFVNWIDSIIQ
degradation of hydrogel film monitored by QCM resonance frequency (25% cross-linked film) [3]: After 10 min of enzyme exposure, the film was completely degraded
degradation of hydrogel film monitored by QCM resonance frequency (50% cross-linked, reduced film) [3]: the rate of degradation increased when the HNE concentration was increased
degradation of hydrogel film monitored by QCM, 10 U/ml HNE [4]: There was no noticeable degradation of the hydrogel when HNE was introduced
change of QCM parameter delta XL (mass of the hydrogel film) after addition of HNE [5]: The gradual decrease in mass was due to the breakage of peptide bonds and the subsequent dissolution of the film resulting in mass loss from the surface of the crystal
change of QCM resistive component delta R after addition of HNE [5]: The gradual decrease was caused by the cleavage of peptide bonds and subsequent dissolution of the hydrogel by the action of the enzyme human neutrophil elastase
